Here are results for one molecule from patent US6824972 (BAYLOR COLLEGE OF MEDICINE, dated 2004).

The target of this assay is T1, NF-κB relA subunit (human, UniProt Q04206 1-551).
T1 construct: also called re1A; p65
In words: EMSA with supershift (antisera to p50 and relA), nuclear extracts of TNF-stimulated normal and patient G embryonic fibroblasts, 32P-labelled MHC-1 probe. (Mobility shift assays separate free from complexed probe on a gel.)

T1 sequence (Q04206 whole entry): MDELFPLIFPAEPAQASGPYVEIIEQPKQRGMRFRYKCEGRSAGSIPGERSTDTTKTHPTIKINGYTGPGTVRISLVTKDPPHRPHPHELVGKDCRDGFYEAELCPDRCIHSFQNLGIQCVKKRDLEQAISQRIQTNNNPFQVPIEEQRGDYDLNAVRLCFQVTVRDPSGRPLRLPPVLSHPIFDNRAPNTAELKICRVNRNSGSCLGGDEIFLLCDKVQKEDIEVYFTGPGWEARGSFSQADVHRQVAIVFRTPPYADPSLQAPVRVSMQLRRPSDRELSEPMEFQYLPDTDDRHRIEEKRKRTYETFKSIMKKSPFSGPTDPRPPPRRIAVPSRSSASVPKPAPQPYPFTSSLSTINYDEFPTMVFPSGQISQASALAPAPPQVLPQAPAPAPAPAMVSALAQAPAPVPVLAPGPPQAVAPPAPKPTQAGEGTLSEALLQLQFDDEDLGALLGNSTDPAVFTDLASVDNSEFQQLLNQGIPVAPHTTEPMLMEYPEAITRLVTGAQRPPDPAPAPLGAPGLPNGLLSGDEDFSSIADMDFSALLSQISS

B1: NF-κB p50 subunit (other, human, UniProt P19838 1-433, looked up)
chain: MAEDDPYLGRPEQMFHLDPSLTHTIFNPEVFQPQMALPTDGPYLQILEQPKQRGFRFRYVCEGPSHGGLPGASSEKNKKSYPQVKICNYVGPAKVIVQLVTNGKNIHLHAHSLVGKHCEDGICTVTAGPKDMVVGFANLGILHVTKKKVFETLEARMTEACIRGYNPGLLVHPDLAYLQAEGGGDRQLGDREKELIRQAALQQTKEMDLSVVRLMFTAFLPDSTGSFTRRLEPVVSDAIYDSKAPNASNLKIVRMDRTAGCVTGGEEIYLLCDKVQKDDIQIRFYEEEENGGVWEGFGDFSPTDVHRQFAIVFKTPKYKDINITKPASVFVQLRRKSDLETSEPKPFLYYPEIKDKEEVQRKRQKLMPNFSDSFGGGSGAGAGGGGMFGSGGGGGGTGSTGPGYSFPHYGFPTYGGITFHPGTTKSNAGMKHG
In the case of B1, the binding result was “binds”.
